Consider 3 sequences from patent publication US20230035403A1, “Method For Determining Responsiveness To Prostate Cancer Treatment” (Janssen Biotech, Inc., priority 2020, published 2023).

Common to all, as to assay: In vitro binding of neoantigens to class I MHC (UV peptide exchange, HLA class I ELISA)
Holding throughout (conditions): 100% = same binding affinity as positive control peptide
In general terms: An ELISA detects its analyte on a solid surface through an enzyme-linked reagent.

In test [1] the target is HLA-A*01:01 (Homo sapiens, UniProt P04439, A114D/A174V/A182V/D101N/D185E/E176A/E190D/L180R/Q94H/R68K/S129P/T187R/V100A/V91M/W191G). On the procedure: (§1) The 9 mer peptides identified by bioinformatics analysis were analyzed for their binding propensities to 6 common HLA class I alleles (HLA-A*01:01, A*02:01, A*03:01, A*24:02, B*07:02, B*08:01). The principle of the method is briefly described below and consists of two parts, one involving exchange of peptide with a positive control induced by Ultraviolet (UV) radiation, and the second is an enzyme immunoassay to detect stable HLA-peptide and empty HLA complexes.
(§2) HLA-bound peptides are critical for the stability of the HLA complex.
(§3) The exchange efficiency between the peptide of interest and Pos was analyzed using an HLA class I ELISA. The combined technologies allowed the identification of ligands for an HLA molecule of interest which are potentially immunogenic.
(§4) The UV control represented UV-irradiation of conditional HLA class I complex in the absence of a rescue peptide.
(§5) The HLA class I ELISA is an enzyme immunoassay based on the detection of beta2-microglobulin (B2M) of (peptide-stabilized) HLA class I complexes. To this end streptavidin was bound onto polystyrene microtiter wells. After washing and blocking, HLA complex present in exchange reaction mixtures or ELISA controls was captured by the streptavidin on the microtiter plate via its biotinylated heavy chain. Non-bound material was removed by washing. Subsequently, horseradish peroxidase (HRP)-conjugated antibody to human B2M was added. […] In the latter case B2M was removed during the washing step. After removal of non-bound HRP conjugate by washing, a substrate solution was added to the wells. A coloured product formed in proportion to the amount of intact HLA complex present in the samples. After the reaction was terminated by the addition of a stop solution, absorbance was measured in a microtiter plate reader. […] Suboptimal HLA binding of peptides with a moderate to low affinity for HLA class I molecules can also be detected by this ELISA technique (Rodenko, B et al. (2006) Nature Protocols 1: 1120-32).
(§6) Binding of select neoepitopes to HLA-A*01:01, HLA-A*02:01, HLA-A*03:01, HLA-A*24:02, HLA-B*07:02 and HLA-B*08:01 was evaluated using the assay described in Example 1. […] As a criterion for further evaluation, peptides with an exchange rate of at least […] with the corresponding Pos peptide for at least one of the 6 HLA alleles that we considered for further evaluation. […] Higher percentages correspond to stronger binding to the HLA allele.

The target in test [2] is HLA-A*02:01 (Homo sapiens, UniProt P04439, D140Y/D185E/D98H/E176V/E277Q/G131W/G231S/I119V/I121R/I166T/I218V/L300P/L318F/N151K/N90K/P208A/P217A/Q86G/Q94H/R138H/R169H/T345S). On the procedure: as §1, §2, §3, §4, §5, §6
Test [3] concerns the target HLA-A*03:01 (Homo sapiens, UniProt P04439). On the procedure: as §1, §2, §3, §4, §5, §6
For test [4], the target named is HLA-A*24:02 (Homo sapiens, UniProt P04439, D101N/D140Y/D185E/E176V/E190D/F33S/G103R/G107R/I119L/I121M/I306V/K335N/L105A/L180Q/L300P/N151K/N90K/Q86E/Q94H/R106L/R138H/R89G/T104I/T345S/V100E/W191G/Y123F). On the procedure:
as §1, §2, §3, §4, §5, §6

Test [5] addresses HLA-B*07:02 (Homo sapiens, UniProt P01889). On the procedure: as §1, §2, §3, §4, §5, §6
For test [6], the target named is HLA-B*08:01 (Homo sapiens, UniProt P01889, A93T/A95T/D138N/E176V/E187T/K202T/Q94N/R180D/S35A/V36M/Y33D/Y91F). On the procedure:
as §1, §2, §3, §4, §5, §6

In the case of SLYHREKQLIAMDSAI [Neoantigen P22], the “Exchange rate with the allele specific Pos peptide, HLA-A*01:01” value (“Exchange rate … HLA-A*01:01” for short) in test [1] is 4.4%. For the same sequence, the “Exchange rate with the allele specific Pos peptide, HLA-A*02:01” value (“Exchange rate … HLA-A*02:01” below) in test [2] amounted to 46.9%. The “Exchange rate with the allele specific Pos peptide, HLA-A*03:01” value (shortened to “Exchange rate … HLA-A*03:01”) in test [3] is 4.8%. Besides, the “Exchange rate with the allele specific Pos peptide, HLA-A*24:02” value (“Exchange rate … HLA-A*24:02” for short) in test [4] was determined as 0%. In addition, the “Exchange rate with the allele specific Pos peptide, HLA-B*07:02” value (“Exchange rate … HLA-B*07:02” below) in test [5] was 8.3%. For the same sequence, the “Exchange rate with the allele specific Pos peptide, HLA-B*08:01” value (shortened to “Exchange rate … HLA-B*08:01”) in test [6] was 3.9%.
Regarding “YEAGMTLGEKFRVGNCKHLKMTRP [Neoantigen P82]”, the “Exchange rate … HLA-A*01:01” value in test [1] stood at 1.5%. The “Exchange rate … HLA-A*02:01” value in test [2] is recorded as 6.3%. Moreover, the “Exchange rate … HLA-A*03:01” value in test [3] worked out at 58.1%. For the same sequence, the “Exchange rate … HLA-A*24:02” value in test [4] is −0.1%. In test [5], the “Exchange rate … HLA-B*07:02” value is reported as 12.9%. Moreover, the “Exchange rate … HLA-B*08:01” value in test [6] is given as 1.4%.
For “YEAGMTLGGKILFFLFLLLPLSPFSLIF [Neoantigen P87]”, the “Exchange rate … HLA-A*01:01” value in test [1] stood at 1.1%. Moreover, the “Exchange rate … HLA-A*02:01” value in test [2] stood at 64%. Besides, the “Exchange rate … HLA-A*03:01” value in test [3] came to 2.4%. Further, the “Exchange rate … HLA-A*24:02” value in test [4] was determined as 0.2%. Further, in test [5], the “Exchange rate … HLA-B*07:02” value is 5%. Moreover, the “Exchange rate … HLA-B*08:01” value in test [6] is given as 3.1%.
